Here are results for two substances from article PMC10816394, “Radiosynthesis and Bioevaluation of ^99mTc-Labeled Isocyanide Ubiquicidin 29-41 Derivatives as Potential Agents for Bacterial Infection Imaging” (International Journal of Molecular Sciences, 2024).

No end group written: not given here.

Data set [1] is classed as physicochemical. The note with it: pH 7.4. Here is the method: The lipophilicities of the ^99mTc-labeled complexes were evaluated by the distribution coefficient. The method for determining the distribution coefficient was as follows: 0.1 mL of the radiolabeled complex (3.7 MBq) was mixed with 0.9 mL of phosphate buffer (0.025 mol/L, pH 7.4) and 1 mL of n-octanol in a 5 mL centrifuge tube. The mixture was shaken on a vortex mixer at room temperature for 3 min and centrifuged at 5000 r/min for 5 min. Aliquots of 0.1 mL of both n-octanol and PBS were collected, and the radioactivity was determined with a γ-counter. The distribution coefficient was calculated as follows: Log D = lg[(counts per minute in n-octanol/counts per minute in PBS)]. Each group of measurements was carried out five times in parallel. The final results are expressed as the log D ± SD.

Data set [2] has as its system S. aureus-infected mice. Also on record: species or system female Kunming mice. The note with it: mouse, in vivo. On the procedure: Bacterial infection mouse models were constructed as follows: S. aureus (ATCC 25923) was cultured in a liquid medium at 37 °C for approximately 24 h, washed with PBS (pH 7.4) and diluted to obtain a suspension of 1 × 10^8 CFU/mL. […] The mice were sacrificed with isoflurane anesthesia at 120 min postinjection. […] To evaluate the metabolic properties of [^99mTc]Tc-CN5UBI 29-41, biodistribution studies were carried out in mice infected with S. aureus at 30, 120 and 240 min.

Data set [3] relates to turpentine-oil-inflamed mice. Put plainly: Biodistribution in mice with turpentine-induced abscesses (sterile inflammation). The note with it: tail vein injection, 120 min p.i., mean ± SD, n = 5. On the procedure: The sterile inflammation mouse model was constructed as follows: turpentine oil (0.1 mL) was injected into the left thigh muscle of female Kunming mice (18–22 g). […] Each mouse was injected with 0.1 mL of [^99mTc]Tc-CN5UBI 29-41 (3.7 MBq/mL) via the tail vein. The mice were sacrificed under anesthesia with 1.5% isoflurane at 120 min postinjection. The organs of interest (the inflamed muscle in the left thigh, normal muscle in the right thigh, blood, heart, liver, lung, kidney, spleen, stomach, bone, small intestine and large intestine) were collected, weighed and measured by a γ-counter. The results are expressed as the percentage of the injected dose per gram of tissue ± standard deviation (%ID/g ± SD). After the mice were sacrificed, the tissues containing the thyroid around the trachea in the neck were collected and measured. The results are expressed as the percentage of the injected dose ± standard deviation (%ID ± SD).

The subject of data set [4] is S. aureus-infected mice. Put plainly: SPECT imaging in bacterial infection mice. The data set is classed as in vivo. The note with it: S. aureus in left forelimb muscle, 30~37 MBq tail vein, imaging at 30, 120 and 240 min p.i., n = 2. Here is the method:
The bacterial-infected mouse model was generated as follows: 100 μL of bacterial suspension containing approximately 1 × 10^8 CFU/mL (for S. aureus) was injected into the left forelimb muscle of the same mice. […] One hundred microliters of [^99mTc]Tc-CN5UBI 29-41 (30~37 MBq) was injected intravenously into each bacterially infected mouse via the tail vein (n = 2). […] The SPECT/CT images were reconstructed with HiSPECT 3.2.0 software (Bioscan, Washington, DC, USA) and processed with VivoQuant 2.5 software (Invicro, Needham, MA, USA).

Data set [5] has as its system bacterial infection sites. The arrangement: method as in PMID 14960656, PMID 10774881, PMID 12900285, PMID 15093821, PMID 11337578. The note with it: literature values; cited from earlier work.
The conditions of data set [6]: in vivo; cited from earlier work.

“[^99mTc]Tc-CN5UBI 29-41: ^99mTc complex of ligand CN5UBI 29-41 with the [^99mTc]Tc(I)^+ core (TGRAKRRMQYNRR; also: CN5 chelator, position not given here, 99mTc(I) complex; UniProt P62861 103-115, looked up, fragment)”: the “Log D ± SD, [^99mTc][Tc(Ⅰ)]^+ Core” value in data set [1] is reported as −2.66 ± 0.02. The “Abscess/Muscle ratio (target-to-nontarget ratio)” value in the data set on S. aureus-infected mice [2] came out at 4.15 ± 0.49. Further, in data set [3], the Abscess uptake came to 0.73 ± 0.05 %ID/g, the Abscess/Blood ratio is on record as 0.59 ± 0.06, the “Abscess/Muscle ratio (target-to-nontarget ratio)” value amounted to 2.52 ± 0.22 and the Blood uptake is given as 1.28 ± 0.12 %ID/g. In data set [3], this substance came in with a Bone uptake of 0.82 ± 0.19 %ID/g, a Gallbladder uptake of 0.15 ± 0.04 %ID, a Heart uptake of 0.61 ± 0.03 %ID/g and a Kidney uptake of 13.05 ± 1.24 %ID/g. Further, the “Large Intestines uptake” value in data set [3] turned out to be 0.62 ± 0.18 %ID/g. In addition, in the data set with S. aureus-infected mice [4], the “SPECT image finding at infection site” value is “accumulated at the site of bacterial infection”.

With “[^99mTc]Tc-UBI 29-41: directly ^99mTc-labeled UBI 29-41, reported bacterial infection tracer; structure speculated (TGRAKRRMQYNRR; also: directly 99mTc-labeled, no chelator, structure speculative; UniProt P62861 103-115, looked up, fragment)”, the “target-to-nontarget ratio at bacterial infection sites” value in data set [5] is 1.7–4.7. In addition, in data set [6], the “target-to-nontarget ratio at sterile inflammation sites” value is recorded as 1.1–1.2.
